The DeepSol protein solubility set

assay: soluble on expression in E. coli; label from the status in PepcDB or PDB records

Sequence | soluble on expression in E. coli
MSELMQAILDSEEKHDLRGFISELRQQDKNYLLRNDILNVYAEYCSKCQKPETSYKFSNLSKLIYYTQEIIQEDSNFCFIIRPKIAAQEVYRLTADLDVEPMTVQELLDLRDRLVNKFHPYEGDILELDFGPFYDYTPTIRDPKNIGKGVQYLNRYLSSKLFQDSQQWLESLFNFLRLHNYNGIQLLINHQIQSQQQLSQQVKNALNFVSDRPNDEPYEQFRLQLQTMGFEPGWGNTASRVRDTLNILDELIDSPDPQTLEAFISRIPMIFRIVLVSAHGWFGQEGVLGRPDTGGQVVYVLDQAKNLEKQLQEDAILAGLEVLNVQPKVIILTRLIPNSDGTLCNQRLEKVYGTENAWILRVPLREFNPKMTQNWISRFEFWPYLETFAIDSERELLAEFQGRPDLIVGNYTDGNLVAFLLTRRMKVTQCNIAHALEKSKYLFSNLYWQDLEEKYHFSLQFTADLIAMNAANFVISSTYQEIVGTPDSIGQYESYKCFTMPELYHVVNGIELFSPKFNVVPPGVNENSYFPYTQTQNRIESDRDRLEEMLFTLEHHHHHH | not soluble
MPISETWLLPDGVADVLPEQAQVVETLRRQALDFLASRGYQLVYTPFIEYIESLSLLSESNHDLDLVTFKVIDQLSGRLLGVRADMTPQVARIDAHVRSIEGVARYCYAGTVLHTKPQNFNSSRAPLQLGAELYGHQSLEADIEMVDVMLGLIQQAHNLEGLHLDLGHVGLFRSLVKRAGLSKQVEQDLSDLYQRKALPELEEVTKTLAFGSDFYALGRYASDLNALEQHLSQDVLNDASFKTSLDDLKTTLSQIQTRWPNLRIGIDVVELRSYHYHTGLMYAVYAPNRAAPLAQGGRYDGIGEHFGRARPATGFSCDLYALCVGQFKEIETIVAPAGQDQQLLGAIAQARQNGLRVIQLLGNDDLSSVPYATHKMELAQDQWQINKI | not soluble
DYNGQAKCMLEKVGNWNFDIFLFDRLTNGNSLVSLTFHLFSLHGLIEYFHLDMMKLRRFLVMIQEDYHSQNPYHNAVHAADVTQAMHCYLKEPKLANSVTPWDILLSLIAAATHDLDHPGVNQPFLIKTNHYLATLYKNTSVLENHHWRSAVGLLRESGLFSHLPLESRQQMETQIGALILATDISRQNEYLSLFRSHLDRGDLCLEDTRHRHLVLQMALKCADICNPCRTWELSKQWSEKVTEEFFHQGDIEKKYHLGVSPLCDRHTESIANIQIGFMTYLVEPLFTEWARFSNTRLSQTMLGHVGLNKASWKGLQR | soluble
MGSDKIHHHHHHMTMTKKDALLLAAKELFGEYGYSETTFKKISERAGVALGLLTHHYGNKEKLFLAAGLDVLDRFIVYLQDACAKGNNGYESVMNFCRAYLDFSIDKNEHFMVLVRCSPYSDMKTKTDRDIMYEKFNQVPRELEYHVRRGIEDGSLKSLPAYETTTVLTCNLVGSIRTKLLTPYAPPSLYDDVLEFISRSIKA | not soluble
MRYKKTLMLSIMITSFNSFAFNDNYSSTSTVYATSNEATDSRGSEHLRYPYLECIKIGMSRDYLENCVKVSFPTSQDMFYDAYPSTESDGAKTRTKEDFSARLLAGDYDSLQKLYIDFYLAQTTFDWEIPTRDQIETLVNYANEGKLSTALNQEYITGRFLTKENGRYDIVNVGGVPDNTPVKLPAIVSKRGLMGTTSVVNAIPNEIYPHIKVYEGTLSRLKPGGAMIAVLEYDVSELSKHGYTNLWDVQFKVLVGVPHAETGVIYDPVYEETVKPYQPSGNLTGKKLYNVSTNDMHNGYKWSNTMFSNSNYKTQILLTKGDGSGVKLYSKAYSENFK | not soluble
MLKKRELQDCHALYELMVHPDVFPFVRQKASSYEEFLFMTKQLMEAEERGELISRTILDEWGNPIGTISLFDIQDGAGFLGTWLGKPYHGLGYNRRAKEAFFHELFYELSIETVFLRIRKVNVRSIKAAEKLPYVTPANETRRALLEQIGADVYNLYEITKDNYTLYTMRHPSFAHNEEQRKEA | not soluble
MSLGVLFSPPPASAYDGVEFLEFAVDEAVGARLGNWLKRLGFAEAGKHRSKEVQLLRQGDINIVLNAEPYSFGHNFFEAHGPSLCATALRVKDQQAALKRATAFRGQPFRGLVGPNECEVPAVRAPDGSLLYLVEQGTAGHTLYDTDFSLDNNATATGGLRRIDHMALALPAESLDSWVLFYKSLFDFAADDEVVLPDPYGLVKSRALRSQCGTLRLPLNISENRNTAIAHALSSYRGSGVHHIAFDCDDIFREVARAKLAGVPLLEIPLNYYDDLAARFDFDDEFLSELAYYNVLYDRDAQGGELFHVYTEPFEERFFFEIIQRKAGYAGYGAANVAVRLAAMAKARSGAARKEGHHHHHH | soluble
MTTLFISDLHLDPARPAITELFLDFLRTQVPGSDALYILGDLFEAWIGDDTPSTAADAVAEALHAVATTGVPVFFMPGNRDFLVGAAYAQRAGFRILPDPTVIDLYGQPTLLMHGDLLCTDDTAYQAFRAQTRDPAFQAQFLSQPLAARVAFAQQARAASHARQSELKQGDQAQFETVTDVAPAEVDATFVRYGLDRIIHGHTHRPAIHTVQAGGRTCTRVVLGDWYEQGSVLRVDADGLALEQLALLEHHHHHH | soluble
CIGLVNPKTPENVGSVMRAAGCYGVNSVFYTGKRYDIAKQFCTDTKSQHLNLPLIGVEDLRDIVPLDCVPVAVDLIEGAKPLPDYKHPPRAFYIFGPEDGTLKKEITDFCRETIYVPTNGCMNLAAAVNVIMYDRMAK | not soluble
MGSDKIHHHHHHMDSLSSILKSVRLQGSVYFNACFASPWGLDLDQNQRAYFHLIIRGACYLQLGDKKEQLQGGDIIILPHGTAHQLFDDPSSVRVNATGVVPGLIDGINPFEGVGHSQDIDILCGYFNFNNSTPSYFLNALPDVIHLTQEHRTHFSFLDNALSFITQETKMKNLGREILIDRVTELLFVQIMRVYININGNEENIFSALSDRTLSEALQLMHTESDKNWTVESLAKAIGMSRSRFSEHFHNYIGETPMRYLHTCRMEVAKQKIEETESTLNIISEEVGYASDSAFKKAFKKFFGNTPSTFRQKNDK | not soluble
EDKTITTLYVGGLGDTITETDLRNHFYQFGEIRTITVVQRQQCAFIQFATRQAAEVAAEKSFNKLIVNGRRLNVKWGR | soluble
MGHHHHHHSHMDQEMRVKRLESEKQELQEQLDLQHKKCQEANQKIQELQASQEARADHEQQIKDLEQKLSLQEQDAAIVKNMKSELVRLPRLERELKQLREESAHLREMRETNGLLQEELEGLQRKLGRQEKMQETLVGLELENERLLAKLQSWERLDQTMGLSIRTPEDLSRFVVELQQRELALKDKNSAVTSSARGLEKARQQLQEELRQVSGQLLEERKKRETHEALARRLQKRVLLLTKERDGMRAILGSYDSELTPAEYSPQLTRRMREAEDMVQKVHSHSAEMEAQLSQALEELGGQKQRADMLEMELKMLKSQS | soluble
MGSDKIHHHHHHMNPVTHKAVLLLRPGKSPDDFTQQLRKTGRECFVHSFIEIEPLPVNKEQLTQIKQKHWDGIVIVSKNAAHYASRAGFSGVPSKYYAVGPGTASFACKHLNTAVSCPAFIHQSEGLLELSELQKLQQQNWLIIRGEGGRELLADAIRARGASVDYWEVYRRKQLTLNDPELIQQWISSVGTIVVTSAEQLGYFLSSMPNSAQSWLDSCQWIVPSHRLKGLIPFGQSDNIKVTGSAADAILMNALIADGKTHD | not soluble
RVEVGGSGDAAAVLGLGAVLQGQGQGTSPSPSGLRPQPEAALPPLERLPKPVLVQVASRCRRNDSRSPTHRKITRGAVGLFHPQLYLSGGNCIECGNEMMSRGKFERLAGTATAKWHVSIKVLPSGVTLGKWLQQHGLPILQGEPRQWRRPRCPCATSCAARCRRASNRRK | not soluble
MGSDKIHHHHHHMPATVPFVGPEAIERQRNLPVKARIGANESGFGPSPKVHLALQAASSDIWKYADPENFDLKAALAAHYGLAADNFAVGEGVDDLLGLTVRLVIEQGLPVVTSLGGYPTFNFHVNGFGGQLVTVPYRQDREDLDGLLEAVRRENAPLAYLANPDNPMGSWHESHDVVAFARALPETCLLILDEAYSETAPAGSIPAVDALIDLPNVLRMRTFSKAYGLAGARIGYAIGTPGTVSAFDKIRNHFGMVRTSVAAALAALADQDYLTATVARIIAARERISSIARQNGLQPLASATNFVAVDCGRDPAYARSIVDGLMQHGVFIRMPGVAPLNRCIRISAGLPEDLDLLEQALPIVLRDIG | not soluble
MGHHHHHHSHMPKVKRSRKAPPDGWELIEPTLDELDQKMREAETEPHEGKRKVESLWPIFRIHHQKTRYIFDLFYKRKAISRELYEYCIKEGYADKNLIAKWKKQGYENLCCLRCIQTRDTNFGTNCICRVPKSKLEVGRIIECTHCGCRGCSG | soluble
MEDIKIKEIFENIYEVDLGDGLKRIATKSIVKGKKVYDEKIIKIGDEEYRIWNPNKSKLAAAIIKGLKVMPIKRDSKILYLGASAGTTPSHVADIADKGIVYAIEYAPRIMRELLDACAERENIIPILGDANKPQEYANIVEKVDVIYEDVAQPNQAEILIKNAKWFLKKGGYGMIAIKARSIDVTKDPKEIFKEQKEILEAGGFKIVDEVDIEPFEKDHVMFVGIWEGK | soluble
MGSDKIHHHHHHMKRPLQTWLTESWLAFSRLLTFHILERRLFEHSGRIPYEPQPGNLLYVAASVLPYHTSGYTTRTHEVVCALNKAGARVHVLTRPGYPWDRKDRLCDPVSEETTVGDMCYRHAQAPANNRPVLQYALQAARVVAESAVRHRVAVIHAASNHVNALPALLAARQLGIPFQYEMRGLWELTRISRQPGYEDSQAYKQGLQLEGLVARHADRLFVISEQLGKYVQTNWDIDAGRMALLPNCVDPERFLIADPQQIESNTIGYAGSLMGYEGLDTLIDAVDILVRSGSSVRVVIIGDGEARPQLETRVQRLGLSERIYFSGKMPPDAAREKLARCALVCIPRKPFKVCEIVPPIKLVEALAMGKPVIVPDLPVFRDELGDDPAGWFFRSGDAADLAHVIEAALGNEEKLREMSDQARDYVLAKRCWHRFVDKMAKPYDS | not soluble
GLPDSAFEHDGQLTKRDVRAITLARLAPVPGELLWDVGAGCGSIGIEWMRAHPTCRAMAIEADEGRQQLIEFNRDALGVPGLQLVRGSAPQALSGLERPDAIFIGGGVTRIGVLETCWEQLRSGGRLVANAVTLQSEAALMAWRERHGGELTRIHVAHAQPLGEFDTWRQALPITLLDVVKP | not soluble
MGSDKIHHHHHHMASESNQVIQRLFQRFFRDELAGLSPADRAAFESEFEGRYGELLDRSSSATTTSFADLVGFGDGPIKPFDSLQMPLLRNDFDESIIPPQLQASAELYYIYQMDRMKLFQVVDVLRRLFQNGQIRIQRGPGARGLYILEKWRPIRYKRRDRLIAYRRVFNYGRAPVPAGAIVNRSFHFQLVAFMNAMSQYFQDLTIGQVIRGSSTINDRPFAALATVQRVGTDLRYHLDRSSYGNILALTRETGQYVQQIFELFDAPDIKKSFDANTKWDVIEAVANRHLGGATEMSERAKMADAGRRILQYIAENDFRTTITPAEFDADAKKMGAQADAWLAAYRLTREGRRFPGLDGDRVHWSYGLNRNTASRIAA | not soluble
MGSDKIHHHHHHMTEQFNINQFNCSISGKGQTLIWAHGSTGCIQSEDAIGLYAWHRFPKKLQLIRYDAVGHGLSSAGKCVEDYLWPELANDMISVATHCKATSELILGGQSMGSATSLYAALKHPGMVKGLILMNPPNAWHSRAAQVDEYHKMAKAARIFGGKGLAKISAKHWDKLLPNWLINGHEHSVLGMLDGLKQMTSQTLDQLFRAAALNDLPNKQLLSGLTMPTLILAWHGDKTHPVETAIELHQTLPNSTLHIADSVDEVNEWPELISEFCFRL | not soluble
